{
  "source": "patent US20220340673A1",
  "about": "(HARBOUR BIOMED SUZHOU, published 2022)",
  "binders": {"B1": {"name": "BCMA x CD3 bispecific antibody PR003178 (bispecific antibody, human IgG1, lambda, L234A L235A)", "heavy 1": "not shown", "light": "QAVVTQEPSLTVSPGGTVTLTCRSSTGAVTTSNYANWVQQKPGQAPRGLIGGTNKRAPWTPARFSGSLLGDKAALTLLGAQPEDEAEYFCALWYSNLWVFGGGTKLTVLGQPKAAPSVTLFPPSSEELQANKATLVCLISDFYPGAVTVAWKADSSPVKAGVETTTPSKQSNNKYAASSYLSLTPEQWKSHRSYSCQVTHEGSTVEKTVAPTECS", "heavy 2": "EVQLVETGGGLIQPGGSLRLSCAASGFTVSDNYMTWVRQAPGKGLEWVSVIFSGGNTYYADSVKGRFTISRDNAKNTLYLQMNSLRAEDTALYYCARRNYDDTRGTDVFDIWGQGTMVTVSSGGGGSGGGGSGGGGSEVQLVETGGGLIQPGGSLRLSCAASGFTVSDNYMTWVRQAPGKGLEWVSVIFSGGNTYYADSVKGRFTISRDNAKNTLYLQMNSLRAEDTALYYCARRNYDDTRGTDVFDIWGQGTMVTVSSASEPKSSDKTHTCPPCPAPEAAGGPSVFLFPPKPKDTLMISRTPEVTCVVVDVSHEDPEVKFNWYVDGVEVHNAKTKPREEQYNSTYRVVSVLTVLHQDWLNGKEYKCKVSNKALPAPIEKTISKAKGQPREPQVCTLPPSREEMTKNQVSLSCAVKGFYPSDIAVEWESNGQPENNYKTTPPVLDSDGSFFLVSKLTVDKSRWQQGNVFSCSVMHEALHNHYTQKSLSLSPGK", "notes": "Three chains: HC1 (anti-CD3 heavy, knob, LALA), LC (anti-CD3 lambda light), HC2 (two tandem anti-BCMA VH of PR001046 joined by (G4S)3, then Fc hole, LALA); also called PRO03178"}},
  "key": {"[1]": {"target": "T1, human BCMA on cells (HEK293T/huBCMA; NCI-H929) (human, UniProt Q02223 1-184)", "T1 construct": "whole, on cells; also called human BCMA molecules on NCI-H929 cell line", "T1 sequence (looked up)": "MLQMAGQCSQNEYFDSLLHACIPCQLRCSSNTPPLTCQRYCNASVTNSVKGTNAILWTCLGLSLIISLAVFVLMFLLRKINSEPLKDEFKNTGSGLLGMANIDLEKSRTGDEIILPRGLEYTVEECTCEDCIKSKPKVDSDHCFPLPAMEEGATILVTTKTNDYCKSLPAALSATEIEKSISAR", "experiment": "FACS on NCI-H929 cells"}, "[2]": {"target": "T1, human BCMA on cells (HEK293T/huBCMA; …)", "experiment": "cell-based or functional assay"}, "[3]": {"target": "T1, human BCMA on cells (HEK293T/huBCMA; …)", "experiment": "FACS on HEK293T/huBCMA cells", "source_text": "(§1) To study the in vitro binding activity of the BCMA arm of the BCMA×CD3 bispecific antibody, HEK293T cell strain overexpressing human BCMA (HEK293T/huBCMA) and HEK293T cell strain overexpressing cynomolgus monkey BCMA (HEK293T/cynoBCMA) were used for antibody binding experiments at cellular level. Briefly, HEK293T/huBCMA cells and HEK293T/cynoBCMA cells were digested and resuspended with DMEM complete medium. The cell density of the two was adjusted to 1×10⁶ cells/mL, respectively. Cells were inoculated at 100 μL cells/well in a 96 well V-bottom plate (Corning, Cat#: 3894), followed by the addition of test antibodies at 100 μL/well, which is gradient diluted at 3 folds of the concentration with 2 folds of the final concentration. Cells were incubated at 4° C. for 1 hour in the dark. Afterwards, the cells were washed twice with 100 μL/well of pre-cooled PBS, centrifuged at 500 g for 5 min at 4° C., and followed by discarding the supernatant. 100 μL/well of fluorescent secondary antibody (Alexa Fluor 488-conjugated AffiniPure Goat Anti-Human IgG, Fcγ Fragment Specific, Jackson, Cat#: 109-545-06, 1:500 dilution) was added and incubated for 30 min at 4° C. in the dark. […] Finally, the cells were resuspended with 200 μL/well of pre-cooled PBS, and the fluorescence luminescence signal values were read by BD FACS CANTOII. […]"}, "[4]": {"target": "T1, human BCMA on cells (HEK293T/huBCMA; …)", "experiment": "FACS on NCI-H929 cell line [B]", "procedure": "To study the binding activity of the BCMA arm of the BCMA×CD3 bispecific antibody to human BCMA, NCI-H929 cell line with highly expressed BCMA was used for binding experiments with human BCMA at cellular level. Briefly, NCI-H929 cell suspensions were collected. The cell density was adjusted to 1×10⁶ cells/mL, and the cells were inoculated in 96 well V-bottom plates at 100 μL cells/well (Corning, Cat#: 3894), followed by the addition of test antibodies at 100 μL/well, which is gradient diluted at 3 folds of the concentration with 2 folds of the final concentration. Cells were incubated at 4° C. for 2 hours in the dark. Afterwards, cells were washed twice with 100 μL/well of pre-cooled PBS, centrifuged at 500 g for 5 min at 4° C., and followed by discarding the supernatant. 100 μL/well of fluorescent secondary antibody (Alexa Fluor 488-conjugated AffiniPure Goat Anti-Human IgG, Fcγ Fragment Specific, Jackson, Cat#:109-545-06, 1:500 dilution) was added and incubated at 4° C. for 1 hour in the dark. Cells were washed twice with 100 μL/well of pre-cooled PBS, centrifuged at 500 g, 4° C. for 5 min, and followed by discarding the supernatant. Finally, the cells were resuspended with 200 μL/well of pre-cooled PBS, and the fluorescence luminescence signal values were read by BD FACS CANTOII."}, "[5]": {"target": "T2, cynomolgus monkey BCMA on cells (HEK293T/cynoBCMA) (cynomolgus monkey, UniProt A0A2K5UD97 1-183)", "T2 construct": "whole, on cells", "T2 sequence (A0A2K5UD97 entry or part of it)": "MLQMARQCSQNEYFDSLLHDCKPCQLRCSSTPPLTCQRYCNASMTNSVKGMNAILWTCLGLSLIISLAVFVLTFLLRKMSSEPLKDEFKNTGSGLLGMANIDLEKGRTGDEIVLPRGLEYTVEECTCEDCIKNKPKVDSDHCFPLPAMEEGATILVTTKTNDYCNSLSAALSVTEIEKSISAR", "experiment": "FACS on HEK293T cell strain overexpressing cynomolgus monkey BCMA [C]", "source_text": "as §1"}},
  "data": [
    {"binder": "B1", "values": [
      {"measurement": "fold lower EC50 than positive control 2", "setting": "[1]", "value": "~8", "unit": "fold"},
      {"measurement": "EC50 of the killing curve (LDH release, human PBMC effector cells, NCI-H929 target cells), fold against positive control 2", "setting": "[2]", "value": 10, "unit": "fold"},
      {"measurement": "fold lower EC50 than positive control 2", "setting": "[3]", "value": "~5", "unit": "fold"},
      {"measurement": "EC50", "setting": "[4]", "value": 1.1, "unit": "nM"},
      {"measurement": "EC50", "setting": "[5]", "value": 0.921, "unit": "nM"}
    ]}
  ]
}
